# In article PMC7337067, “Cryo-electron microscopic and X-ray crystallographic analysis of the light-driven proton pump proteorhodopsin reveals a pentameric assembly” (Journal of Structural Biology: X, 2020):
# Biological target: the molecule itself
# Experiment: crystal structure; 3D crystals of purified GPR, 50 mM MES pH 6, 25 mM MnCl2, 30% PEG 400; anisotropic diffraction to 4.44 Å; molecular replacement with pentameric HOT75BPR (PDB 4KLY); no atomic model built
protein,measurement,value
"green-light absorbing proteorhodopsin (GPR), untagged (natural protein, γ-proteobacterium, all-trans retinal covalently linked via a Schiff base to a conserved lysine, N-terminal methionine added to the construct; theoretical MW of the monomer 25.5 kDa; Stop codon placed before the HRV 3C site and decahistidine-tag of pZUDF21, so no tag on the protein; Pentamer by crystallography and cryo-EM; also called untagged GPR; tag-free GPR; source: E. coli BL21(DE3) Rosetta2 (pZUDF21stop); purified from Cymal-5 solubilized membranes (Q Sepharose IEC, Superdex 200 SEC); …) MAGGGDLDASDYTGVSFWLVTAALLASTVFFFVERDRVSAKWKTSLTVSGLVTGIAFWHYMYMRGVWIETGDSPTVFRYIDWLLTVPLLICEFYLILAAATNVAGSLFKKLLVGSLVMLVFGYMGEAGIMAAWPAFIIGCLAWVYMIYELWAGEGKSACNTASPAVQSAYNTMMYIIIFGWAIYPVGYFTGYLMGDGGSALNLNLIYNLADFVNKILFGLIIWNVAVKESSNA",stoichiometry N,5
